“Also recorded” adds a separate entry of the source.
Experiments:
[1] = system: thyroid cancer cell lines; assay: Demethylation (MSP) and re-expression (RT-PCR) of RASAL1 after 5-Aza-dC treatment; type: cell-based, human; conditions: for demethylation of RASAL1 (MSP analysis): thyroid cancer cell lines, 5 μM 5-Aza-dC for 24 hours
Method: FIG. 2. Hypermethylation of RASAL1 and its re-expression induced by demethylation in thyroid cancer cells. […] After cells were treated with 5 μM 5-Aza-dC for 24 hours, RNA and genomic DNA were extracted and used for reverse-transcription polymerase chain reaction (RT-PCR) and MSP analysis, respectively. C) RT-PCR analysis of RASAL1 expression in thyroid cancer cell lines treated with or without demethylating agent 5-Aza-dC. D) MSP analysis of RASAL1 in matched normal and cancerous thyroid tissues. Six matched sample pairs are presented that had different methylation patterns between normal and matched tumor tissues. E) RASAL1 methylation levels represented by the indicated allelic methylation percentages (x-axis) and their frequencies (y-axis) in different types of thyroid cancers. ATC=anaplastic thyroid cancer; FTC=follicular thyroid cancer; PTC=papillary thyroid cancer.
DNA bisulfate treatment was performed as previously described (29). See Table 3 for MSP primer sequences. The relative level of methylation was normalized using the ratio obtained from the values of the gene of interest over the values of the internal reference gene (β-actin). The relative methylation level was calculated by the formula [M/(M+U)]×100%, in which M and U represent the density of the methylation and unmethylation band, respectively. Results represent the percentage of allelic methylation of the tumor.
RNA extraction and semi-quantitative RT-PCR were performed as previously described (Liu et al., 13(4) CLIN. CANCER RES. 1341-49 (2007)). Normal human thyroid RNA samples (Stratagene, La Jolla, Calif.) were used as the control. The RT-PCR primers are presented Table 3.

[2] = system: RAS (RAS-GTP) in WRO cells; assay: RAS pull-down (RAS activation) assay with ATP stimulation; type: cell-based, human; conditions: WRO cells stably transfected; ATP treatment
Method: (§1) FIG. 6. […] Scale bar=100 μm. […] Scale bar=100 μm.
The protocol for cell treatment was as described previously (Walker et al., 23(8) EMBO J. 1749-60 (2004)). Briefly, cells were serum starved for 2 h in serum-free medium at 24 h post-transfection of wild-type H-RAS. Cells were then treated with 50 μM ATP for 1 min. A RAS activation assay kit (Cell Biolabs, San Diego, Calif.) was used to assess RAS activity. After treatment, cells were washed twice with ice-cold PBS and then lysed in 1 mL of assay lysis buffer. After centrifugation at 14,000×g for 10 min at 4° C., cell lysates were incubated at 4° C. for 1 h with 40 μL of the RAF1 RAS-binding domain-agarose beads. The beads were pelleted and washed three times with assay lysis buffer, and then resuspended in 2× reducing SDS-PAGE sample buffer. The quantities of activated RAS (RAS-GTP) were analyzed by Western blotting using anti-RAS monoclonal antibody.

[3] = system: thyroid cancer cell lines; assay: Colony formation in monolayer culture after transient RASAL1 transfection; type: cell-based, human; conditions: transient reintroduction, compared with control vector; six of seven thyroid cancer cell lines tested
[4] = system: K1 cell-derived xenograft tumors; assay: Xenograft tumor formation in nude mice
Description: The procedures for the construction of doxycycline (Dox)-inducible expression device for RASAL1 and transfection of K1 cells are as described in the Materials and Methods section below. […] Each time point represents the average±standard deviation of the values obtained from four mice in each group. Two-tailed paired Student t test was used to compare tumor sizes at week 5. H) Photographs of the tumors that were surgically removed from mice in each group after they were killed at the end of 5 weeks from the cell inoculation. I) Weight of individual tumors surgically removed from the animals in each group corresponding to (H). The average weight of the tumors from each group is indicated with a short horizontal bar.
The animals' care was in accord with the guidelines of Johns Hopkins Medical Institutions. K1 cells stably transfected with doxcycycline-inducible wild-type RASAL1 or RASAL1 mutants constructed as described above were injected (1×10^7 cells/mouse) subcutaneously into flanks of female nude mice at the age of 4 weeks (Harlan Sprague Dawley, Indianapolis, Ind.). Mice were fed vehicle or 0.2 mg/mL doxycycline, which was stored in a 0.5% sucrose solution in light-proof bottles, beginning when the tumor grew to a size of 2 mm at 1.5 weeks after the inoculation of cells. Tumor size was measured, and volume was calculated using the formula (length×width2)/2. After 5 weeks, mice were sacrificed, and tumors were surgically removed, photographed, and weighed.

K1 cells = assay: Colony formation with doxycycline-inducible RASAL1 expression; type: cell-based, human; conditions: Dox-induced expression, control (no Dox) 86.00±8.54, P=0.006
Method: as §1
Colony formation assays were performed as described previously (Liu et al., 92(6) J. CLIN. ENDOCRINOL. METAB. 2264-71 (2007)). For colony formation in monolayer culture, transfected cells (1×10^5 cells/well) were inoculated into a […], and 24-h later cells were selected with blasticidin (2 μg/mL) for 2 weeks. Surviving colonies were counted after staining with crystal violet. For colony formation in soft agar, cells (5×10^3 cells/well) were plated in RPMI 1640 containing 10% FBS and 0.33% agar in 12-well plates. After 3-4 weeks of culture, colonies were photographed and colony number was counted under a microscope.
RASAL1 cDNA, which was amplified from normal thyroid (Stratagene, La Jolla, Calif.) and tagged with c-myc epitope, was inserted into a modified lenti-virus vector that was derived from plenti6/V5-DEST (Invitrogen, Grand Island, N.Y.). The virus packaging and cell infection were performed as described previously (Liu et al., 18 CANCER RES. 7311-19 (2009)). To construct the plasmid for doxycycline-inducible expression of RASAL1, the CMV promoter in the modified plenti6/V5-DEST plasmid was replaced with the Xho I-EcoR V fragment of plasmid pUHG10-3 (Gossen et al., 89(12) PROC. NATL. ACAD. SCI. USA 5547-51 (1992)), which contained hCMV minimal promoter with heptamerized upstream tet-operators. […]

[5] = system: MAPK and PI3K signaling pathways (pERK, pAkt) in thyroid cancer cell lines; assay: Western blotting of ERK and Akt phosphorylation after RASAL1 expression; type: cell-based, human; conditions: for pERK and pAkt levels: acute expression; for pERK and pAKT: stable expression
C643 cells = assay: Anchorage independent colony formation, stable transfection; type: cell-based, human; conditions: C643, stably transfected; n=3; control vector 92.67±18.15; P=0.03
KAT18 cells = assay: as above; type: cell-based, human; conditions: KAT18, stably transfected; n=3; control vector 81.67±16.29; P=0.05
WRO cells = assay: Colony formation in soft agar, stable transfection; type: cell-based, human
Description: FIG. 5. Examination of the effects of reintroduction of RASAL1 on RAS signaling and growth of thyroid cancer cells. A) A representative result of Western blotting analysis of RASAL1 expression and phosphorylation of ERK and Akt as well as other related proteins as indicated in various thyroid cancer cell lines that harbor different genetic alterations. B) A representative result of colony formation of thyroid cancer cells in monolayer culture after transfection of plasmids with or without insertion of RASAL1 cDNA followed by drug selection for 2 weeks. Cell colonies were stained with crystal violet. Scale bar=1 cm. C) Western blotting analysis of RASAL1 expression and phosphorylation of ERK and Akt and related proteins as indicated in three selected thyroid cancer cell lines stably transfected with RASAL1. D) Bar graph presentation of the colony numbers (mean±standard deviation) from three experiments for cells stably transfected with empty vectors or RASAL1 as in (C). Only cell colonies containing more than 50 cells were included.
as §1
Colony formation assays were performed as described previously (Liu et al., 92(6) J. CLIN. ENDOCRINOL. METAB. 2264-71 (2007)). […] Surviving colonies were counted after staining with crystal violet. […] After 3-4 weeks of culture, colonies were photographed and colony number was counted under a microscope.

Molecule: Nc1ncn([C@H]2C[C@H](O)[C@@H](CO)O2)c(=O)n1 [5-Aza, 5-aza-2-deoxycytidine]
- RASAL1 expression (RT-PCR) ([1]; in six of the eight thyroid cancer cell lines tested, 5 μM for 24 hours): restored its expression
- demethylation of RASAL1 (MSP analysis) [1]: induced demethylation of RASAL1
- demethylation of RASAL1 (MSP analysis) ([1]; listed as 5-Aza-dC): Partial demethylation

B1: RASAL1: RASAL1 cDNA from normal thyroid, c-myc tagged, in lenti-virus vector, expressed in thyroid cancer cells; RasGAP tumor suppressor protein (protein, UniProt O95294 1-804, looked up)
RasGAP-activating-like …: MAKSSSLNVRVVEGRALPAKDVSGSSDPYCLVKVDDEVVARTATVWRSLGPFWGEEYTVHLPLDFHQLAFYVLDEDTVGHDDIIGKISLSREAITADPRGIDSWINLSRVDPDAEVQGEICLSVQMLEDGQGRCLRCHVLQARDLAPRDISGTSDPFARVFWGSQSLETSTIKKTRFPHWDEVLELREMPGAPSPLRVELWDWDMVGKNDFLGMVEFSPKTLQQKPPKGWFRLLPFPRAEEDSGGNLGALRVKVRLIEDRVLPSQCYQPLMELLMESVQGPAEEDTASPLALLEELTLGDCRQDLATKLVKLFLGRGLAGRFLDYLTRREVARTMDPNTLFRSNSLASKSMEQFMKLVGMPYLHEVLKPVISRVFEEKKYMELDPCKMDLGRTRRISFKGALSEEQMRETSLGLLTGYLGPIVDAIVGSVGRCPPAMRLAFKQLHRRVEERFPQAEHQDVKYLAISGFLFLRFFAPAILTPKLFDLRDQHADPQTSRSLLLLAKAVQSIGNLGQQLGQGKELWMAPLHPFLLQCVSRVRDFLDRLVDVDGDEAGVPARALFPPSAIVREGYLLKRKEEPAGLATRFAFKKRYVWLSGETLSFSKSPEWQMCHSIPVSHIRAVERVDEGAFQLPHVMQVVTQDGTGALHTTYLQCKNVNELNQWLSALRKASAPNPNKLAACHPGAFRSARWTCCLQAERSAAGCSRTHSAVTLGDWSDPLDPDAEAQTVYRQLLLGRDQLRLKLLEDSNMDTTLEADTGACPEVLARQRAATARLLEVLADLDRAHEEFQQQERGKAALGPLGP
modifications: c-myc tag
notes: RASAL1 cDNA from normal thyroid, c-myc tagged, in lenti-virus vector, expressed in thyroid cancer cells; RasGAP tumor suppressor protein
- effect on activation of RAS and increase in pAKT and pERK stimulated by ATP [2]: suppressed the activation of RAS and the increase in pAKT and pERK
- cell colony growth in monolayer culture [3]: dramatically inhibited cell colony growth
- effect on tumor growth ([4]; doxycycline-induced expression in K1 xenografts): statistically significant inhibitory effect
- tumor weight ([4]; doxycycline-induced expression, after 5 weeks, without induction 1.01±0.54, P=0.047): 0.66 ± 0.53 g
- tumor volume ([4]; doxycycline-induced expression, week 5, without induction 0.94±0.52, P=0.02): 0.49±0.4 cm3
- colony number (K1 cells): 40.33±6.03
- pERK and pAkt levels ([5]; BCPAP cells (BRAF mutation)): only reduced pAKT but not pERK
- pERK and pAkt levels ([5]; C643 cells (RAS mutation)): No effect was observed; also recorded: no effect on pERK and pAKT
- pERK and pAkt levels ([5]; FTC-133 cells (PTEN mutation)): reduced pERK but not pAKT
- pERK and pAkt levels ([5]; Hth7 cells (RAS mutation)): No effect was observed
- pERK and pAkt levels ([5]; KAT18 cells (wild-type RAS, BRAF, PIK3CA, PTEN)): decreased both pERK and pAkt levels
- pERK and pAKT ([5]; KAT18 cells): inhibition of pERK and pAKT was observed
- pERK and pAkt levels ([5]; SW1736 cells (BRAF mutation)): No effect was observed
- pERK and pAkt levels ([5]; TPC1 cells (RET-PTC1 rearrangement)): no effect
- pERK and pAkt levels ([5]; WRO cells (wild-type RAS, BRAF, PIK3CA, PTEN)): decreased both pERK and pAkt levels
- pERK and pAKT ([5]; WRO cells): inhibition of pERK and pAKT was observed
- colony number (C643 cells): 55.33±9.71
- colony number (KAT18 cells): 54.00±6.56
- colony number (WRO cells; WRO cell pools, wild-type vs mutants experiment, vector 52.00±9.54, P=0.009): 24.00±7.81
- colony number (WRO cells; WRO, stably transfected, n=3, control vector 48.00±13.45, P=0.03): 21.67±6.35

From patent publication US10047402B2, “RASAL1 is a major tumor suppressor gene in thyroid cancer” (THE JOHNS HOPKINS UNIVERSITY, priority 2013, dated 2018)
